Results published in US20140348838A1 (AbbVie / Abbott, published 2014).
Numbering of substitutions follows the chain as printed. One block for each binder: values may come before it.

Legend:
[1] = target: T1, human IL-1α (human, UniProt P01583 113-271, biotinylated in the ELISA (site not stated)); assay: Biacore (SPR), sequential injections on captured DVD-Ig: IL-1α as 2nd injection, after IL-1β
T1 construct: also called hIL-1α; Human mature IL-1α
T1 sequence: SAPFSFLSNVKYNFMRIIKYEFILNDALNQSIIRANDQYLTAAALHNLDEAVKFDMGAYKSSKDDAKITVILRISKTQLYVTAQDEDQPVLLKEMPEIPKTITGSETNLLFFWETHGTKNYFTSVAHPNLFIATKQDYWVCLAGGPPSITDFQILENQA

[2] = target: T2, cynomolgus IL-1α (cynomolgus, UniProt P79340 113-271); assay: SPR (Biacore), DVD-Ig captured, antigen in solution
T2 construct: also called cyno IL-1α; Cyno IL-1α
T2 sequence (looked up): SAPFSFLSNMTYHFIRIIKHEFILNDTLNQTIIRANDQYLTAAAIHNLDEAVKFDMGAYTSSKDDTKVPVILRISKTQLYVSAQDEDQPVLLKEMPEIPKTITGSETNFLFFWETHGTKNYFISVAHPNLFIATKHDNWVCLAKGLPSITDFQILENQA

[3] = target: T1, human IL-1α; assay: as above
[4] = target: T1, human IL-1α; assay: ELISA: DVD-Ig captured on anti-human Fc, biotinylated antigen titrated
Protocol: (§1) To determine if the anti-IL-1β mAbs bind to human IL-1β, ELISA plates (Nunc, MaxiSorp, Rochester, N.Y.) were incubated overnight at 4° C. with anti-human Fc antibody diluted in Pierce Coat buffer at 2 μg/ml (Jackson Immunoresearch, West Grove, Pa.). Plates were washed five times in washing buffer (PBS containing 0.05% Tween 20), and blocked for 1 hour at 25° C. with 200 μl per well superblock blocking buffer (Thermo scientific, No. 37515). Blocking buffer was removed by tapping plates, and 2 μg/ml of each antibody in PBS containing 10% Superblock, 0.5% Tween-20 was added to the wells at 100 μl/well and incubated at 25° C. for 1 hour. The wells were washed five times in 1×PBST, and 1 μg/ml biotinylated antigen was titrated at 1:6 serial dilutions (for a range of μg to pg in PBS containing 10% Superblock, 0.05% Tween 20). Each dilution of antigen was then added to the plates and incubated for 1 hour at 25° C. […] The wells were washed five times in 1×PBST, and 100 μl of ULTRA-TMB ELISA (Pierce, Rockford, Ill.) were added per well. Following color development the reaction was stopped with 1N HCL and absorbance at 450 nm was measured.
(§2) IL-1β and IL-1α binding by IL-1β/α DVD-Ig binding proteins was assessed by ELISA (assay described above, Example 2.1).

[5] = target: T3, human IL-1β (human, UniProt P01584 117-269, biotinylated in the ELISA (site not stated)); assay: as above
T3 construct: also called hIL-1β; Human mature IL-1β
Protocol: as §1, §2

[6] = target: T2, cynomolgus IL-1α; assay: cell-based or functional assay
[7] = target: T4, cynomolgus IL-1β (cynomolgus, UniProt P79182 117-268); assay: cell-based or functional assay
T4 sequence (looked up): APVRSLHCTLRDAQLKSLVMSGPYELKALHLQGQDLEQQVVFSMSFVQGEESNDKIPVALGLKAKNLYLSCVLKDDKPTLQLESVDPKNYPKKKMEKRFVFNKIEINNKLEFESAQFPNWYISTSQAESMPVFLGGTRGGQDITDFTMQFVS

[8] = target: T1, human IL-1α; assay: cell-based or functional assay
[9] = target: T4, cynomolgus IL-1β; assay: SPR (Biacore), DVD-Ig captured, antigen in solution
[10] = target: T3, human IL-1β; assay: as above
[11] = target: T3, human IL-1β; assay: cell-based or functional assay
[12] = target: T3, human IL-1β; assay: ELISA: antibody captured on anti-human Fc, biotinylated antigen titrated
Protocol: as §1

- stoichiometry [1]: 1.6
- Kd [2]: 4110 pM
- Kd [3]: 7.61 pM
B1: E26.13-SS-X3 DVD-Ig (bispecific antibody, human IgG1, kappa, L234A L235A)
heavy: not shown
light: DIQMTQSPSSLSASVGDRVTITCRASGNIHNYLTWYQQTPGKAPKLLIYNAKTLADGVPSRFSGSGSGTDYTFTISSLQPEDIATYYCQHFWSIPYTFGQGTKLQITRTVAAPDIQMTQSPSSVSASVGDRVTITCRASQGISSWLAWYQQKPGKAPKLLIYEASNLETGVPSRFSGSGSGSDFTLTISSLQPEDFATYYCQQTSSFLLSFGGGTKVEHKRTVAAPSVFIFPPSDEQLKSGTASVVCLLNNFYPREAKVQWKVDNALQSGNSQESVTEQDSKDSTYSLSSTLTLSKADYEKHKVYACEVTHQGLSSPVTKSFNRGEC
notes: Dual variable domain immunoglobulin

- EC50 [4]: 4 pM
- EC50 [5]: 6.3 pM
B2: E26.35-SS-X3 JM DVD-Ig (bispecific antibody, human IgG1, kappa, L234A L235A)
heavy: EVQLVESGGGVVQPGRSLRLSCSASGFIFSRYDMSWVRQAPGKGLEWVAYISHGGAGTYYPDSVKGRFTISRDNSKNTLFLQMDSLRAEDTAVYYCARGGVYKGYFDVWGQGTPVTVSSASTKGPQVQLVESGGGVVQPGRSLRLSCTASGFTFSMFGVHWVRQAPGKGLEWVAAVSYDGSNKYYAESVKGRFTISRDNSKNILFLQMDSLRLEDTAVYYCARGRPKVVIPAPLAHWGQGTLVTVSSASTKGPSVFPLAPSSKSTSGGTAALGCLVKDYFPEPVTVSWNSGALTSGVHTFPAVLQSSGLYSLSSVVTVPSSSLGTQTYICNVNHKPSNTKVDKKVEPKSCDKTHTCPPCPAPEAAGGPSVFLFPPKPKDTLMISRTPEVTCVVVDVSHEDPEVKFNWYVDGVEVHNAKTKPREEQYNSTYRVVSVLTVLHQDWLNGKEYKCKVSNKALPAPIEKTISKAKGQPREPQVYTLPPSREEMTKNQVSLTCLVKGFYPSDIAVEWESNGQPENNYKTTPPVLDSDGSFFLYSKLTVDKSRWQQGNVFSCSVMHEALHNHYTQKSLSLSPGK
light: B1 light with H219I
notes: Dual variable domain immunoglobulin; X3 is mutated in the J-region (X3 JM)

- EC50 [4]: 4.3 pM
- Potency (pM): neutralization of IL-1-induced hIL-8 in MRC5 cells [6]: 1880 pM
- Potency (pM): neutralization of IL-1-induced hIL-8 in MRC5 cells [7]: 17.6 pM
- Potency (pM): neutralization of IL-1-induced hIL-8 in MRC5 cells [8]: 26.5 pM
B3: E26.13-SS-X3 JM DVD-Ig (bispecific antibody, human IgG1, kappa, L234A L235A)
heavy: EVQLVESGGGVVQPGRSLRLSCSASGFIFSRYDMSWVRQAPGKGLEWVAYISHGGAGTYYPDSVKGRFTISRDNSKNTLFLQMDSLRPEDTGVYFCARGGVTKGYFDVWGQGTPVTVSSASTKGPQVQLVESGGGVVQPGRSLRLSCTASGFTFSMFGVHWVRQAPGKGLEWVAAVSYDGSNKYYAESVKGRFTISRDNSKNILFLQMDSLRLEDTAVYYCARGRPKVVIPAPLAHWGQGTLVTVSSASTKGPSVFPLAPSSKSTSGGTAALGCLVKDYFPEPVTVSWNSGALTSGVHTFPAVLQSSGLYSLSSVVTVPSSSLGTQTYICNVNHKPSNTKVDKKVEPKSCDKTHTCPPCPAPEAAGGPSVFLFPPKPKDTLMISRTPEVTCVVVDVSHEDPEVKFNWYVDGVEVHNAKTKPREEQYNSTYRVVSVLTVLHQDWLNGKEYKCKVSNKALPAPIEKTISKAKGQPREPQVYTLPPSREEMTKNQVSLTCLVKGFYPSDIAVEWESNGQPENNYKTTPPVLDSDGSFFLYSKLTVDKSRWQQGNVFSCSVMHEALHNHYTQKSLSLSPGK
light: B1 light with H219I
notes: as for B2

- EC50 [4]: 6.2 pM
- EC50 [5]: 8 pM
- Kd [2]: 3270 pM
- koff [2]: 0.000236 s⁻¹
- kon [2]: 72400 M⁻¹ s⁻¹
- Kd [9]: 10.6 pM
- koff [9]: 1.94e-05 s⁻¹
- kon [9]: 1.84e+06 M⁻¹ s⁻¹
- Kd [3]: 13.3 pM
- koff [3]: 2.14e-06 s⁻¹
- kon [3]: 162000 M⁻¹ s⁻¹
- Kd [10]: 5.03 pM
- koff [10]: 6.81e-06 s⁻¹
- kon [10]: 1.32e+06 M⁻¹ s⁻¹
- Potency (pM): neutralization of IL-1-induced hIL-8 in MRC5 cells [6]: 474 pM
- Potency (pM): neutralization of IL-1-induced hIL-8 in MRC5 cells [7]: 0.6 pM
- Potency (pM): neutralization of IL-1-induced hIL-8 in MRC5 cells [8]: 25.8 pM
- Potency (pM): neutralization of IL-1-induced hIL-8 in MRC5 cells [11]: 1.8 pM
B4: E26.35-SS-X3 DVD-Ig (bispecific antibody, human IgG1, kappa, L234A L235A)
heavy: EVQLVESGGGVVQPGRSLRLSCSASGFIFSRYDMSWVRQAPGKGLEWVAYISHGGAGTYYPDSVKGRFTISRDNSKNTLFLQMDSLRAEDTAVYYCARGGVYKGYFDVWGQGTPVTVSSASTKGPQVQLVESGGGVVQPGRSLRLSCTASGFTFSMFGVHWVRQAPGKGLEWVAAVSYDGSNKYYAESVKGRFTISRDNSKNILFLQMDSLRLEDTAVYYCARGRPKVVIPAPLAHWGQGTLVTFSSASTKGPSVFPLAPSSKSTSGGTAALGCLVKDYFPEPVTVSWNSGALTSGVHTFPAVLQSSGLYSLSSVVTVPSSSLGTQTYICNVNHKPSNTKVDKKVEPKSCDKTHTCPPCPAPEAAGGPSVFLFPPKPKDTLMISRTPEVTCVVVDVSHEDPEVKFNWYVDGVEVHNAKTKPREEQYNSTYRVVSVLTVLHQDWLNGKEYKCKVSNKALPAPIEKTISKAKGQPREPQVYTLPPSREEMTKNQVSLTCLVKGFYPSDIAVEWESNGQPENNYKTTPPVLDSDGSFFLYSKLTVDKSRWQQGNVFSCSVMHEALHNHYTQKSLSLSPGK
light: B1 light
notes: as for B1

- EC50 [4]: 5.8 pM
- Kd [2]: 3240 pM
- koff [2]: 0.00105 s⁻¹
- kon [2]: 315000 M⁻¹ s⁻¹
- Kd [3]: 6.15 pM
- koff [3]: 3.9e-06 s⁻¹
- kon [3]: 646000 M⁻¹ s⁻¹
- Potency (pM): neutralization of IL-1-induced hIL-8 in MRC5 cells [6]: 1050 pM
- Potency (pM): neutralization of IL-1-induced hIL-8 in MRC5 cells [8]: 10.2 pM
B5: E26.13-LL-X3 DVD-Ig (bispecific antibody, human IgG1, kappa, L234A L235A)
heavy: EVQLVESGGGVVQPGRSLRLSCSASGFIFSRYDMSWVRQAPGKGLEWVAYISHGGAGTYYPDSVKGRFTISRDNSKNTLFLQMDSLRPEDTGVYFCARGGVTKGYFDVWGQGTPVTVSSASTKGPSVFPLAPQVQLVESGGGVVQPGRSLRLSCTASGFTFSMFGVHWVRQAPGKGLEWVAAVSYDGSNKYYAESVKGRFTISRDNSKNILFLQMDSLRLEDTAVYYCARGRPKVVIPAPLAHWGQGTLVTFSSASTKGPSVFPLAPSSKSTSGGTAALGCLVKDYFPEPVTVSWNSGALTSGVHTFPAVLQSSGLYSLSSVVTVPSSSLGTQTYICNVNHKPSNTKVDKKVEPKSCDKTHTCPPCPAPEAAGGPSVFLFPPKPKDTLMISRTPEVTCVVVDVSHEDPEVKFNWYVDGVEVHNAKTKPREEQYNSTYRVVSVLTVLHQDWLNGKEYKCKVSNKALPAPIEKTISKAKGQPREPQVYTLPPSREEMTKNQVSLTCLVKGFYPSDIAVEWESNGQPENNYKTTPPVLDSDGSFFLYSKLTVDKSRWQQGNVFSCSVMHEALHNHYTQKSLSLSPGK
light: DIQMTQSPSSLSASVGDRVTITCRASGNIHNYLTWYQQTPGKAPKLLIYNAKTLADGVPSRFSGSGSGTDYTFTISSLQPEDIATYYCQHFWSIPYTFGQGTKLQITRTVAAPSVFIFPPDIQMTQSPSSVSASVGDRVTITCRASQGISSWLAWYQQKPGKAPKLLIYEASNLETGVPSRFSGSGSGSDFTLTISSLQPEDFATYYCQQTSSFLLSFGGGTKVEHKRTVAAPSVFIFPPSDEQLKSGTASVVCLLNNFYPREAKVQWKVDNALQSGNSQESVTEQDSKDSTYSLSSTLTLSKADYEKHKVYACEVTHQGLSSPVTKSFNRGEC
notes: as for B1

- EC50 [12]: 14 pM
B6: E26.11 (antibody, V domains shown)
VH: EVQLVESGGGVVQPGRSLRLSCSASGFIFSRYDMSWVRQAPGKGLEWVAYISHGGAGTYYPDSVKGRFTISRDNSKNTLFLQMDSLRPEDTAVYYCARGGVYKGYFDVWGQGTPVTVSS
VL: DIQMTQSPSSLSASVGDRVTITCRASGNIHNYLTWYQQTPGKAPKLLIYNAKTLADGVPSRFSGSGSGTDYTFTISSLQPEDIATYYCQHFWSIPYTFGQGTKLQIT

- Potency (pM): neutralization of IL-1-induced hIL-8 in MRC5 cells [8]: 8.9 pM
- Potency (pM): neutralization of IL-1-induced hIL-8 in MRC5 cells [11]: 1470 pM
B7: X3-LL-E26.13 DVD-Ig (bispecific antibody, human IgG1, kappa, L234A L235A)
heavy: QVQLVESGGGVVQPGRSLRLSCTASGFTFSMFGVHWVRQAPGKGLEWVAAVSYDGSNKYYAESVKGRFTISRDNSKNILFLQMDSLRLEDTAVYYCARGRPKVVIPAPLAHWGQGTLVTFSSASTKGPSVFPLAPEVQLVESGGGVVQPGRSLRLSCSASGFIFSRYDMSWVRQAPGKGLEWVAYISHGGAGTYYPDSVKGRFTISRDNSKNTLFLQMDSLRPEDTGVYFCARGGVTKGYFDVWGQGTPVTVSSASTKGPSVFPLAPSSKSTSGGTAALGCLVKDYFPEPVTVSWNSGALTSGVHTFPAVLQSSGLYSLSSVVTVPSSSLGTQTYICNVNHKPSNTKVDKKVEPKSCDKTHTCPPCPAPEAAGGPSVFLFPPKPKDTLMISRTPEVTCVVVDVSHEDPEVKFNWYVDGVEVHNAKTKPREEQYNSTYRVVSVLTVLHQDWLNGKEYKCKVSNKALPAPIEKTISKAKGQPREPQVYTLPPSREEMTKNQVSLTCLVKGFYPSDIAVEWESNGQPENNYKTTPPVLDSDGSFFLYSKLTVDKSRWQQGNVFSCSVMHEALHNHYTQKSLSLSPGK
light: DIQMTQSPSSVSASVGDRVTITCRASQGISSWLAWYQQKPGKAPKLLIYEASNLETGVPSRFSGSGSGSDFTLTISSLQPEDFATYYCQQTSSFLLSFGGGTKVEHKRTVAAPSVFIFPPDIQMTQSPSSLSASVGDRVTITCRASGNIHNYLTWYQQTPGKAPKLLIYNAKTLADGVPSRFSGSGSGTDYTFTISSLQPEDIATYYCQHFWSIPYTFGQGTKLQITRTVAAPSVFIFPPSDEQLKSGTASVVCLLNNFYPREAKVQWKVDNALQSGNSQESVTEQDSKDSTYSLSSTLTLSKADYEKHKVYACEVTHQGLSSPVTKSFNRGEC

- EC50 [4]: 4.5 pM
B8: X3-SS-E26.13 DVD-Ig (bispecific antibody, human IgG1, kappa, L234A L235A)
heavy: not shown
light: DIQMTQSPSSVSASVGDRVTITCRASQGISSWLAWYQQKPGKAPKLLIYEASNLETGVPSRFSGSGSGSDFTLTISSLQPEDFATYYCQQTSSFLLSFGGGTKVEHKRTVAAPDIQMTQSPSSLSASVGDRVTITCRASGNIHNYLTWYQQTPGKAPKLLIYNAKTLADGVPSRFSGSGSGTDYTFTISSLQPEDIATYYCQHFWSIPYTFGQGTKLQITRTVAAPSVFIFPPSDEQLKSGTASVVCLLNNFYPREAKVQWKVDNALQSGNSQESVTEQDSKDSTYSLSSTLTLSKADYEKHKVYACEVTHQGLSSPVTKSFNRGEC
notes: as for B1
